The results in this text go back to paper PMC8297500.

Where “and” joins values, the source holds several entries; their conditions need not be identical. Equal entries are not always repeated.

Test [1] deals with Theileria parva schizont antigen Tp2, bacterially expressed recombinant protein with His-tag (Theileria parva (Muguga)). Description: SEC; preparative SEC (Generon ProteoSEC 3-70 kD) after affinity chromatography; 20 mM PO4, 250 mM NaCl, 0.02% NaN3, pH 7.5; apparent masses from elution times. For orientation: Size exclusion chromatography separates by hydrodynamic size, large species first.

For test [2] the target is unchanged. Description: SEC-MALS; apparent dimer fraction from preparative SEC; FPLC (Shimadzu) with Wyatt scattering and refractive index detectors.

The stoichiometry N is a count of units in the complex or per binding partner. For the substance “Theileria parva schizont antigen Tp2, bacterially expressed recombinant protein with His-tag (natural protein)”, the stoichiometry N is 4 and 2 in test [1]; 2 in test [2].
